Sequences and labels used below:
B1: Polyadenylate-binding protein-interacting protein 2 (Homo sapiens), Q9BPZ3 (parent)
chain: MKDPSRSSTSPSIINEDVIINGHSHEDDNPFAEYMWMENEEEFNRQIEEELWEEEFIERCFQEMLEEEEEHEWFIPARDLPQTMDQIQDQFNDLVISDGSSLEDLVVKSNLNPNAKEFVPGVKYGNI

Variants of B1 are the subject of this experiment. The conditions noted are these: with pabp1_human PABPC1, P11940.
pabp1_human PABPC1, P11940, sequence (P11940 whole entry): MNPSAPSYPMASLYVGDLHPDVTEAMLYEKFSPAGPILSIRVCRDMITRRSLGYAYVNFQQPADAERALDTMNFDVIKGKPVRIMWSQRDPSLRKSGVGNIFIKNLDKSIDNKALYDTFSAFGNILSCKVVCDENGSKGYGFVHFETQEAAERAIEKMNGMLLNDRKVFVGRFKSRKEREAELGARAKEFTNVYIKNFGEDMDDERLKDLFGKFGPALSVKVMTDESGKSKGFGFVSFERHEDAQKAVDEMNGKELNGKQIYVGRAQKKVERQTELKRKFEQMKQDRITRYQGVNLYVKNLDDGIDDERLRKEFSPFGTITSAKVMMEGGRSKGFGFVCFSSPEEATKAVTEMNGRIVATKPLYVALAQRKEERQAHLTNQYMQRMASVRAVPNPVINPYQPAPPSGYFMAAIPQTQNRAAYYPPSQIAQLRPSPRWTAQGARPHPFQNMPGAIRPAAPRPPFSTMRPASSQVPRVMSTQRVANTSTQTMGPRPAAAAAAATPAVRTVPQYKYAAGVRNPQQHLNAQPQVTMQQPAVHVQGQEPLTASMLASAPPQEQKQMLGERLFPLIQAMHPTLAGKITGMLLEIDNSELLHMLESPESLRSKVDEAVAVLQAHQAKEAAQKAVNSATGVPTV
Consider P113A, for which the “effect of a mutation on the interaction” value is recorded as “decreasing interaction”.

Take A115L: the “effect of a mutation on the interaction” value is listed as “decreasing interaction”. With L111A, the “effect of a mutation on the interaction” value was “decreasing interaction”. With E117A the entry was “decreasing interaction”; with K116A, “decreasing interaction”. With F118A the entry was “disrupting interaction”.

In the case of P120A, the “effect of a mutation on the interaction” value is recorded as “decreasing interaction”.

(Values after IntAct's records for PubMed 14685257.)
